# Measurements: patent US12383631 (BRIGHT PEAK THERAPEUTICS, dated 2025)
# Changes are numbered by the printed parent chain. Names may count otherwise. “And” between values parts separate entries of the source, which are not always exact repeats. Equal values may be shown once.
# T1: IL-18 receptor (IL-18Rα/IL-18Rβ) on cells (HEK-Blue IL18R reporter cells, NK-92, KG-1) (human, UniProt Q13478 19-541; O95256 20-599)
# T1 sequence (looked up) 1: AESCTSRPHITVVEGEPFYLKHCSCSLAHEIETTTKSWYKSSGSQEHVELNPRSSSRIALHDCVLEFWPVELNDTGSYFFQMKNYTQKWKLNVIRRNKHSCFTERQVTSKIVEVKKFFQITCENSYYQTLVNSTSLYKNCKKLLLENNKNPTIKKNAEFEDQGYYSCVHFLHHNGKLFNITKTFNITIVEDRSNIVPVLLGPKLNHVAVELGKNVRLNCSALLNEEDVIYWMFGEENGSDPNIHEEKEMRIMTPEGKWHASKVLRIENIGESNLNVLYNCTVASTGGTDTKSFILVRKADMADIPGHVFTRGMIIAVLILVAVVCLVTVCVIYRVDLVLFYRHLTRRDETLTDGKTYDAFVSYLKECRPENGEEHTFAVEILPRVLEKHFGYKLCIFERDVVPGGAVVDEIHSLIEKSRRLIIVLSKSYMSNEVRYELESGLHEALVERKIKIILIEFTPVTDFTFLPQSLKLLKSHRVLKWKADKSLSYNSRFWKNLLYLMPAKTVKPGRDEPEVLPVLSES
# T1 sequence (looked up) 2: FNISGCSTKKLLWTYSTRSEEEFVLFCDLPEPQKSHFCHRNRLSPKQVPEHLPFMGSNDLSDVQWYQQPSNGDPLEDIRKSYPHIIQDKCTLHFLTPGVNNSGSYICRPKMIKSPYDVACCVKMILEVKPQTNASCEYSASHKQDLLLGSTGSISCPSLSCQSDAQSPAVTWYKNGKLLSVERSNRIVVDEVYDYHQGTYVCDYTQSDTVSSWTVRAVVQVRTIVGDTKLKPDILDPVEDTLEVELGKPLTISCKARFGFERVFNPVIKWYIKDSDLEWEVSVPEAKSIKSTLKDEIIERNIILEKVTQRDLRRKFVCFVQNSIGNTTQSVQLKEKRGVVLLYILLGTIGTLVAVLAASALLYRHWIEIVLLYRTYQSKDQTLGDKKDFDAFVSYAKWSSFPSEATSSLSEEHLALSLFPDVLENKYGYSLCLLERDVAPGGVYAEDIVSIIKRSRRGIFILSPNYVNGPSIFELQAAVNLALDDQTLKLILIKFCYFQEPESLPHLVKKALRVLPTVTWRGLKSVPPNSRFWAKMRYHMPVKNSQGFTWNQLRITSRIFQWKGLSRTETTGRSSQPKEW
# T2: human IL-18BP-His (human, UniProt O95998 31-194, limits assumed)
# T2 construct: also called His-tagged human IL-18BP; not shown: His tag
# T2 sequence (looked up): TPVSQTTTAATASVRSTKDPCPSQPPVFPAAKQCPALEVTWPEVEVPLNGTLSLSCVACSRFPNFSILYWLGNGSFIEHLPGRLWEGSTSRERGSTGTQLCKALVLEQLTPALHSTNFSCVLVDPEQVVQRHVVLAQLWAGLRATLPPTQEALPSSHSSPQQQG
# B1: Composition E (LZM-009 conjugated to IL-18 polypeptide of SEQ ID NO: 60) (other)
# VH: QVQLVQSGAEVKKPGASVKVSCKASGYTFTSYYMYWVRQAPGQGLEWMGGVNPSNGGTNFNEKFKSRVTITADKSTSTAYMELSSLRSEDTAVYYCARRDYRYDMGFDYWGQGTTVTVSS
# VL: EIVLTQSPATLSLSPGERATISCRASKGVSTSGYSYLHWYQQKPGQAPRLLIYLASYLESGVPARFSGSGSGTDFTLTISSLEPEDFATYYCQHSRELPLTFGTGTKVEIK
# chain: YFGKLKSKLSVIRNLNDQVLFIDQGNRPLFEDMTDSDQRDNAPRTIFIISMYADSQPRGMAVTISVKCEKISTLSCENKIISFKEMNPPDNIKDTKSDIIFFQRSVPGHDNKMQFESSSYEGYFLACEKERDLFKLILKKEDELGDRSIMFTVQNED
# modifications: chemical linker to the antibody; chemical linker to IL-18
# B2: IL-18 polypeptide of SEQ ID NO: 60 (E6K, C38Q, K53A) (ligand)
# chain: B1 chain
# B3: IL-18 polypeptide C149 (ligand)
# chain: B1 chain with K6E, V11I, E31A, Q38A, C76A, C127A
# notes: also called V11I, E31A, C38A, K53A, C76A, C127A
# B4: IL-18 polypeptide C158 (ligand)
# chain: B1 chain with K6E, V11I, Q38A, C76A, G108A, C127A
# notes: also called V11I, C38A, K53A, C76A, G108A, C127A
# B5: IL-18 polypeptide C168 (ligand)
# chain: B1 chain with K6E, V11I, Q38A, A53K, C76A, S105K, C127A
# notes: also called V11I, C38A, C76A, S105K, C127A
# B6: IL-18 polypeptide C154 (ligand)
# chain: B1 chain with K6E, V11I, E31A, D37A, Q38A, C76A, C127A
# notes: also called V11I, E31A, D37A, C38A, K53A, C76A, C127A
# B7: IL-18 polypeptide C152 (ligand)
# chain: B1 chain with K6E, V11I, S36A, Q38A, C76A, C127A
# notes: also called V11I, S36A, C38A, K53A, C76A, C127A
# B8: IL-18 polypeptide of SEQ ID NO: 54 (E06K, K53A, C38S, C68S, C76S, C127S, K70C) (ligand)
# chain: B1 chain with Q38S, C68S, K70C, C76S, C127S
# B9: IL-18 polypeptide of SEQ ID NO: 57 (E6K, C38S, K53A) (ligand)
# chain: B1 chain with Q38S
# B10: IL-18 polypeptide of SEQ ID NO: 42 (E06K, K53A, S55A, T63A) (ligand)
# chain: B1 chain with Q38C, S55A, T63A
# B11: IL-18 polypeptide C156 (ligand)
# chain: B1 chain with K6E, V11I, Q38A, N41A, C76A, C127A
# notes: also called V11I, C38A, N41A, K53A, C76A, C127A
# B12: IL-18 polypeptide C157 (ligand)
# chain: B1 chain with K6E, V11I, Q38A, C76A, C127A, D132A
# notes: also called V11I, C38A, K53A, C76A, C127A, D132A
# B13: IL-18 polypeptide C163 (ligand)
# chain: B1 chain with K6E, V11I, Q38A, A53K, C76A, Q103K, C127A
# notes: also called V11I, C38A, C76A, Q103K, C127A
# B14: IL-18 polypeptide C161 (ligand)
# chain: B1 chain with K6E, K8R, V11I, Q38A, A53K, C76A, Q103E, C127A
# notes: also called K8R, V11I, C38A, C76A, Q103E, C127A
# B15: IL-18 polypeptide C164 (ligand)
# chain: B1 chain with K6E, V11I, Q38A, A53K, S55H, C76A, C127A
# notes: also called V11I, C38A, S55H, C76A, C127A
# B16: IL-18 polypeptide of SEQ ID NO: 59 (E6K, C38A, K53A) (ligand)
# chain: B1 chain with Q38A
# B17: IL-18 polypeptide C151 (ligand)
# chain: B1 chain with K6E, V11I, D35A, Q38A, C76A, C127A
# notes: also called V11I, D35A, C38A, K53A, C76A, C127A
# B18: IL-18 polypeptide C167 (ligand)
# chain: B1 chain with K6E, V11I, Q38A, A53K, C76A, S105I, C127A
# notes: also called V11I, C38A, C76A, S105I, C127A
# B19: IL-18 polypeptide C155 (ligand)
# chain: B1 chain with K6E, V11I, Q38A, D40A, C76A, C127A
# notes: also called V11I, C38A, D40A, K53A, C76A, C127A
# B20: IL-18 polypeptide C160 (ligand)
# chain: B1 chain with K6E, V11I, Q38A, C76A, D110A, C127A
# notes: also called V11I, C38A, K53A, C76A, D110A, C127A
# B21: IL-18 polypeptide of SEQ ID NO: 50 (E06K, K53A, T63A) (ligand)
# chain: B1 chain with Q38C, T63A
# B22: IL-18 polypeptide C166 (ligand)
# chain: B1 chain with K6E, V11I, Q38A, A53K, S55T, C76A, C127A
# notes: also called V11I, C38A, S55T, C76A, C127A
# B23: IL-18 polypeptide C150 (ligand)
# chain: B1 chain with K6E, V11I, T34A, Q38A, C76A, C127A
# notes: also called V11I, T34A, C38A, K53A, C76A, C127A
# B24: IL-18 polypeptide C162 (ligand)
# chain: B1 chain with K6E, K8E, V11I, Q38A, A53K, C76A, Q103R, C127A
# notes: also called K8E, V11I, C38A, C76A, Q103R, C127A
# B25: IL-18 polypeptide C159 (ligand)
# chain: B1 chain with K6E, V11I, Q38A, C76A, H109A, C127A
# notes: also called V11I, C38A, K53A, C76A, H109A, C127A
# B26: IL-18 polypeptide of SEQ ID NO: 62 (E6K, C38A, K53A, C127A) (ligand)
# chain: B1 chain with Q38A, C127A
# B27: IL-18 polypeptide C165 (ligand)
# chain: B1 chain with K6E, V11I, Q38A, A53K, S55R, C76A, C127A
# notes: also called V11I, C38A, S55R, C76A, C127A
# B28: IL-18 polypeptide C153 (ligand)
# chain: B1 chain with K6E, V11I, D37A, Q38A, C76A, C127A
# notes: also called V11I, D37A, C38A, K53A, C76A, C127A
# Molecular target: T1, IL-18 receptor (IL-18Rα/IL-18Rβ) on …
# Test: cell-based or functional assay
row,"EC50, IFNγ secretion, NK92 cells [nM]",Binder
1,0.056,B1
2,0.008,B2

# Molecular target: T1, IL-18 receptor (IL-18Rα/IL-18Rβ) on …
# Test: cell-based or functional assay
# Remark: another data set of the same source
row,"EC50, HEK-Blue IL18R reporter cells",Binder
1,0.0066 nM,B3
2,0.000203 nM,B2
3,0.0156 nM,B4
4,0.00773 nM,B5
5,0.0119 nM,B6
6,0.00025 nM,B7
7,0.00912 nM,B8
8,0.00086 nM and 0.00053 nM,B9
9,0.00079 nM,B10
10,0.0117 nM,B11
11,0.00195 nM,B12
12,0.0015 nM,B13
13,0.00201 nM,B14
14,0.00314 nM,B15
15,0.000268 nM,B16
16,0.0131 nM,B17
17,0.00537 nM,B18
18,0.00052 nM,B19
19,0.00202 nM,B20
20,0.00177 nM,B21
21,0.00473 nM,B22
22,0.0007 nM,B23
23,0.0023 nM,B24
24,0.0195 nM,B25
25,0.00017 nM,B26
26,0.00191 nM,B27
27,0.0141 nM,B28

# Molecular target: T1, IL-18 receptor (IL-18Rα/IL-18Rβ) on …
# Test: cell-based or functional assay
# Remark: another data set of the same source
row,"EC50, IFNγ stimulation, NK92 cells [nM]",Binder
1,0.187,B3
2,0.006,B2
3,0.073,B4
4,0.098,B5
5,0.062,B6
6,0.033,B7
7,0.962,B8
8,0.045,B9
9,0.144,B10
10,0.558,B11
11,0.056,B12
12,0.093,B13
13,0.057,B14
14,0.414,B15
15,0.015,B16
16,0.061,B17
17,0.103,B18
18,0.067,B19
19,0.028,B20
20,0.0268,B21
21,0.098,B22
22,0.015,B23
23,0.061,B24
24,0.123,B25
25,0.026,B26
26,0.176,B27
27,0.175,B28

# Molecular target: T2, human IL-18BP-His
# Test: AlphaLISA of free IL-18BP
# Protocol: The plate is incubated further for 1 hr at room temperature. Under subdued light, 12.5 µL of 2× streptavidin (SA) donor beads are pipetted into each well, and the wells are incubated with shaking for an additional 30 min at room temperature. The AlphaLisa signal is then measured on an Enspire plate reader with 680 and 615 nm as excitation and emission wavelengths, respectively. The dissociation constant (K_D) is calculated based on a variable slope, four parameter analysis using GraphPad PRISM software.
row,Kd [nM],Binder
1,0.64,B3
2,24.8,B2
3,1.24,B4
4,0.05,B5
5,2.12,B6
6,1.12,B7
7,446,B8
8,50.2,B9
9,822,B10
10,18.5,B11
11,13.7,B12
12,0.05,B13
13,0.06,B14
14,0.08,B15
15,36,B16
16,2.88,B17
17,0.04,B18
18,0.74,B19
19,0.71,B20
20,340,B21
21,0.02,B22
22,1.24,B23
23,0.85,B24
24,0.55,B25
25,69.6,B26
26,0.15,B27
27,4.55,B28
